Activity data for one molecule are collected here from US20240035010, “COMPOSITIONS COMPRISING A VARIANT POLYPEPTIDE AND USES THEREOF” (Arbor Biotechnologies, Inc., published 2024).

The target of this data set is T1, variant nuclease SEQ ID NO: 53 (P14R, D32R, I61R, E311R, T338G, E736G).
T1 chain: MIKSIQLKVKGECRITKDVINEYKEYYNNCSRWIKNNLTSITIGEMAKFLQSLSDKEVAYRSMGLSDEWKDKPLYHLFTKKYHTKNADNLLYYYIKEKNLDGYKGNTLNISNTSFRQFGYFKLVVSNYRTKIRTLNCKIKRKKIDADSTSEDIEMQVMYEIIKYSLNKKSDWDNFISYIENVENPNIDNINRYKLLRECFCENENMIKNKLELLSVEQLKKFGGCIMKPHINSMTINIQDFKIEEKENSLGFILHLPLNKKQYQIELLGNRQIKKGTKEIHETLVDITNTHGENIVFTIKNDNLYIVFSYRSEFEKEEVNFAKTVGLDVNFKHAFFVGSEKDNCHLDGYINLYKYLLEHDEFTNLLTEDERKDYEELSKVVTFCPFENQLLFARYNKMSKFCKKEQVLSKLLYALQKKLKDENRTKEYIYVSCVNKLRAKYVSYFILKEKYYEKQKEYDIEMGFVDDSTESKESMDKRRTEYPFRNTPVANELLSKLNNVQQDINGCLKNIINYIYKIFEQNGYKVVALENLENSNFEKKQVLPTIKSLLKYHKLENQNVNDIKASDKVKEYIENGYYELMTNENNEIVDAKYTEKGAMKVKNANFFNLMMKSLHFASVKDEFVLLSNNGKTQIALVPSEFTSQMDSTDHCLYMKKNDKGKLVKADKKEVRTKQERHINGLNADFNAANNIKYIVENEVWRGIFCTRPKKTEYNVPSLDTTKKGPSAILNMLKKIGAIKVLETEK
Put plainly: cell_activity; nearly 0.6; HEK293T; PAM 5'-TTTG-3'. Particulars: tags: pcDNA3.1 expression. Here is the method:
Approximately 16 hours prior to transfection, 25,000 HEK293T cells in DMEM/10% FBS+Pen/Strep (D10 media) were plated into each well of a 96-well plate. On the day of transfection, the cells were 70-90% confluent. For each well to be transfected, a mixture of Lipofectamine 2000™ and Opti-MEM™ was prepared and incubated at room temperature for 5 minutes (Solution 1). After incubation, the Lipofectamine 2000™:Opti-MEM™ mixture was added to a separate mixture containing nuclease plasmid, RNA guide plasmid, and Opti-MEM™ (Solution 2). In the case of negative controls, the RNA guide plasmid was not included in Solution 2. Solutions 1 and 2 were mixed by pipetting up and down, then incubated at room temperature for 25 minutes. Following incubation, the Solution 1 and 2 mixture was added dropwise to each well of a 96-well plate containing the cells. Approximately 72 hours post transfection, cells were trypsinized by adding TrypLE™ to the center of each well and incubating at 37° C. for approximately 5 minutes. D10 media was then added to each well and mixed to resuspend cells. The resuspended cells were centrifuged at 500 g for 10 minutes to obtain a pellet, and the supernatant was discarded. The cell pellet was then resuspended in QuickExtract™ buffer (Lucigen®), and cells were incubated at 65° C. for 15 minutes, 68° C. for 15 minutes, and 98° C. for 10 minutes. […]

B1: VEGFA_T1 crRNA ; VEGFA_T1 target (ssRNA ; dsDNA)
RNA: CCUGUUGUGAAUACUCUUUUAUAGGUAUCAAACAACUCCUGGUGAAAGGCAGCCCU
DNA 1: TCCTGGTGAAAGGCAGCCCT
DNA 2: AGGGCTGCCTTTCACCAGGA
In turn, B1 had an activity of roughly 0.6 indel ratio.
